The results in this text go back to the supplement of paper PMC12042874.

± gives the uncertainty stated by the source.

This series is described as follows: amyloid nucleation score (Sup35N fusion, yeast selection) (log enrichment); library NNK2; higher = more nucleation; inactive = no reads after selection. The method in brief: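 Peptides of 20 random codons, each fused to Sup35N, were expressed in psi-negative yeast. Cells were induced with 100 μM copper sulfate for 24 hours and grown 7 days at 30°C on medium lacking adenine and uracil, and plasmid inserts before and after selection were Illumina-sequenced. Nucleation scores are DiMSum log enrichments of output over input reads, centred on the mode score of non-aggregating sequences, and sequences under 100 input reads were excluded.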
Consider DNCLTGIEWI, for which the amyloid nucleation score is -1.83 ± 1.

For the substance DIVIDRNMSLWDPFNIVPFE, the amyloid nucleation score was -0.27 ± 0.79.

In the case of LQYFLGAFAILFMCLLWVLQ, the amyloid nucleation score is 0.381 ± 0.64.

On to LVEVIGFVRVSEPISTHA, for which the amyloid nucleation score was 0.884 ± 0.33.

As for CPVAQYQG, the amyloid nucleation score was -0.308 ± 0.21.

For QMEDSMYLNALRGVSWVTKL, the amyloid nucleation score entry was “inactive”.

Take NAYLFMFFRRGLWFSVLPFV: the amyloid nucleation score is -1.09 ± 1.1.

On to DCARERYKLYNRLHWPSLSS, for which the amyloid nucleation score was determined as 0.474 ± 0.26.

For the substance FRTASLHVCLFLSG, the amyloid nucleation score was -0.316 ± 0.61.

As for LFADGFGSRINDCNTVSMF, the amyloid nucleation score was determined as 0.881 ± 0.47.

For the substance EFSFHSWQLVTSCQEECCLD, the amyloid nucleation score result was “inactive”.

The substance RVYNITILYRCLKRRLS returned an amyloid nucleation score of 0.878 ± 0.57.

MWDNFPCAVVLFKLC: the amyloid nucleation score is 0.696 ± 0.23.

As to MKFVNINGAICSVRHPSVRT, the amyloid nucleation score is 0.089 ± 0.79.

Regarding GDSNG, the amyloid nucleation score is -0.532 ± 0.29.

LSREFLNASL displayed an amyloid nucleation score of -0.947 ± 0.49.

Regarding SLAHQAFAEPSWTKVEE, the amyloid nucleation score came out at 0.278 ± 0.26.

FFYQVWGNN displayed an amyloid nucleation score of 2.26 ± 0.11.

In turn, HVAQTS came in with an amyloid nucleation score of 1.04 ± 0.4.

Substance NYVCWISGTTGLVM gave an amyloid nucleation score of -0.319 ± 0.76.

Take LCCGSLDIYWFVFFF: the amyloid nucleation score worked out at 1.63 ± 0.25.

STNYQLSLFR: the amyloid nucleation score came out at 3.96 ± 0.086.

With ITWGFNVFMFVVPSWS, the amyloid nucleation score came to 8.67 ± 0.035.

With YLACFTARL, the amyloid nucleation score came out at 3.91 ± 0.049.

LSRSMK: the amyloid nucleation score is -0.326 ± 0.29.

For KFSTLCRISYITYLFFG, the amyloid nucleation score was 6.336 ± 0.049.

As for VSSFVKLIWQVALINWVRMG, the amyloid nucleation score entry was “inactive”.

As to GKDGRVFGSEAYWMEGKRKW, the amyloid nucleation score was 0.235 ± 0.8.

HAFLG gave an amyloid nucleation score of 0.53 ± 0.5.

As to IQLDRSYSHNTSSLQGWHTM, the amyloid nucleation score turned out to be 0.062 ± 0.74.

GCNRQMSARK had an amyloid nucleation score of 4.29 ± 0.044.

The substance IIHDLSSFRKCSLHPDIGSS showed an amyloid nucleation score of -0.373 ± 0.37.

CTSLRYFCARFELLSAHSKW came in with an amyloid nucleation score of 0.199 ± 0.4.

FHWYGTVVIYVYLLADVYRC displayed an amyloid nucleation score of -0.153 ± 0.36.

For TSDWRLYFRLTDVVIGLW, the amyloid nucleation score was 1.86 ± 0.083.

Substance YHVVAWSWTRSYV returned an amyloid nucleation score of 0.561 ± 0.4.

Substance QSNRKYGETHWFSTCNMHVL returned an amyloid nucleation score of 0.533 ± 0.45.

SCKWVRGVSRMPNHWN: the amyloid nucleation score was -0.618 ± 1.1.

QRYWSAYDTRNLIGE: the amyloid nucleation score came out at 1.41 ± 0.47.

DSLPSRNSNIGWIQWILWGI returned an amyloid nucleation score of -0.121 ± 1.1.

NSVFAGRRTRTSFP gave an amyloid nucleation score of 0.227 ± 0.62.

The substance GYMSYT registered an amyloid nucleation score of -0.863 ± 0.32.

With YGVFYCSMPYCTSWGIHCVL, the amyloid nucleation score was determined as 7.19 ± 0.077.

As for LLPIGEVKE, the amyloid nucleation score was -1.17 ± 0.44.

Turning to KILNDWADMKSRLMGRLLGE, the amyloid nucleation score was determined as 0.65 ± 0.42.

On to GRSFILTRLRFIFPVYTVC, for which the amyloid nucleation score result is “inactive”.

On to SYIWSECRTNMIVWASNTLK, for which the amyloid nucleation score came out at 3.81 ± 0.063.

For the substance RDSTVFKIYCWPYNN, the amyloid nucleation score is 6.493 ± 0.05.

As to MLSQASKT, the amyloid nucleation score is -0.84 ± 1.1.

On to CFIFKWFYYCLSVSTIDMSV, for which the amyloid nucleation score is -2.48 ± 1.1.

SLARYAGGFRARSGKIFSVC: the amyloid nucleation score came to 0.802 ± 0.22.

In the case of KVALINYSLPMYFSVVTGLY, the amyloid nucleation score was 2.97 ± 0.071.

With LHTTCLFSRWNVFL, the amyloid nucleation score worked out at 2.3 ± 0.076.

As to FFYSVRVRPALIIC, the amyloid nucleation score result was “inactive”.

In the case of QVIDTSPRHVMVIYVP, the amyloid nucleation score was -0.307 ± 0.76.

Take VILMDMYHAGNSAMCLACGN: the amyloid nucleation score was -0.119 ± 0.49.

For the substance YYMLVYWDV, the amyloid nucleation score is 0.56 ± 0.44.

In turn, MSNMVSSMGSRMFLIICVVS came in with an amyloid nucleation score of 0.68 ± 0.4.

Regarding TRRWKALRP, the amyloid nucleation score is 0.794 ± 0.2.

Regarding SWAQRCDGGMYMRDCWLMGS, the amyloid nucleation score came to 0.361 ± 0.33.

In the case of RMFVW, the amyloid nucleation score was -0.341 ± 0.37.

Consider SSFCKPLKVRWLGVIVQLSV, for which the amyloid nucleation score was -0.872 ± 0.45.

Regarding WKTKISSSSCRSGNRSEPNA, the amyloid nucleation score came out at 0.281 ± 0.29.

YLWDRSATRS gave an amyloid nucleation score of 0.605 ± 0.29.

Substance ISVHSQNTYVILELVRPSML registered an amyloid nucleation score of 8.388 ± 0.04.

Regarding CKKEVL, the amyloid nucleation score entry is “inactive”.

For the substance VNDLWRDSHNYFCTNGGNIR, the amyloid nucleation score result is “inactive”.

In the case of QGIRALRLYKFLTTSLILLI, the amyloid nucleation score is -1.42 ± 1.1.

QGFYDGQPV returned an amyloid nucleation score of 0.203 ± 0.5.

On to KIRRPFEMRGSVRDRGCIVR, for which the amyloid nucleation score worked out at 0.938 ± 0.34.

As to VRTLGGL, the amyloid nucleation score was -0.653 ± 0.33.

Substance SRSLNWPSAGKLKSDYEFVV yielded an amyloid nucleation score of -0.675 ± 0.3.

In turn, ALLVILLDCLQFIYMTELNC had an amyloid nucleation score of -0.032 ± 1.1.

For DALQSSFTTLLLYNAIEDVY, the amyloid nucleation score is -0.317 ± 0.35.

Regarding RKVCFLAVKCGGFVCFIVRA, the amyloid nucleation score result was “inactive”.

As for KVALVHAGLKNFWRSSLWRL, the amyloid nucleation score came to 1.11 ± 0.41.

For the substance NFYFLIRLKAFSCLRIENWF, the amyloid nucleation score turned out to be 2.28 ± 0.061.

SKTMSKMNKDQLQHSMLHDP came in with an amyloid nucleation score of -0.453 ± 0.45.

As for QIIVLALMMWMGCRRRMERK, the amyloid nucleation score was determined as 0.414 ± 0.65.

In turn, VAWMFMASFRSLSMMVSISR displayed an amyloid nucleation score of 0.01 ± 0.37.

WVFGLCSIPLHCVLHGIMMG had an amyloid nucleation score of 2.92 ± 0.16.

As to LDTVPTWFYQVMWGYDWVLK, the amyloid nucleation score was determined as 2.81 ± 0.11.

In turn, CSPCFLSCGPYNNGPE came in with an amyloid nucleation score of 7.537 ± 0.074.

Substance PCSRPTLLPCHCGTTTTSHI displayed an amyloid nucleation score of 2.4 ± 0.1.

For the substance IHIWGSLSIDIEFVCGRQAK, the amyloid nucleation score is 1.99 ± 0.27.

In turn, LTSGVHCHKRTVHD showed an amyloid nucleation score of -0.263 ± 1.1.

In turn, DFGYYREIHDEEECSCLKVY registered an amyloid nucleation score of -0.981 ± 0.78.

Substance QWGDYIGAASMW came in with an amyloid nucleation score of -0.767 ± 0.49.

Regarding LSSIWVSSYHLSWLKSW, the amyloid nucleation score is -0.048 ± 0.42.

In turn, LFEMP gave an amyloid nucleation score of 0.728 ± 0.74.

As to SWNKGIHGGSTANCWFIVIK, the amyloid nucleation score was 0.029 ± 0.61.

VWSRRYTLVGFTSVVPSNDN gave an amyloid nucleation score of 0.3 ± 0.37.

As for WVYNLALCNSRVIKG, the amyloid nucleation score is -0.51 ± 0.48.

The substance SQFLIMTEDR showed an amyloid nucleation score of 0.123 ± 0.34.

RSGLYM: the amyloid nucleation score was -0.55 ± 0.64.

For ISLSLFRNGPIRMAKGSAWM, the amyloid nucleation score was found to be 6.081 ± 0.036.

For SSVHPPEPRINFFSSDGCIA, the amyloid nucleation score entry was “inactive”.

AYLPHAHTT gave an amyloid nucleation score of -0.154 ± 0.33.

Consider DYLYCSAQFRHMRVQSPGNA, for which the amyloid nucleation score was found to be 0.885 ± 0.2.

LFLRAHILGTVTCIRDFAPG: the amyloid nucleation score came to 1.14 ± 0.18.

Take CRMNDNSDWVRYAGHKAMAS: the amyloid nucleation score was found to be 1.2 ± 0.27.

For VSGCRGVMLI, the amyloid nucleation score is -0.816 ± 0.54.

RDVWVRGLACLVASSTMHSS displayed an amyloid nucleation score of 0.999 ± 0.32.

EFCIPKNLRSW registered an amyloid nucleation score of 0.182 ± 0.22.

In the case of TPAWCYPTGIGLIPPEWLGQ, the amyloid nucleation score came out at 0.605 ± 0.23.

CHQCVNERFESKREPVPDHS yielded an amyloid nucleation score of 0.421 ± 0.45.

Take ASGNRTFVVMLLNRRKMMST: the amyloid nucleation score was found to be 0.008 ± 0.48.

Regarding FAVNDCILCCRRSHWVLPYW, the amyloid nucleation score is -0.334 ± 0.63.

Take PDFLAVGHVSTFVHFTVETG: the amyloid nucleation score was 1.16 ± 0.38.

Regarding SSFYTSGYPQNVSARGLGAE, the amyloid nucleation score stood at 0.627 ± 0.56.

Take KMPGFLVCW: the amyloid nucleation score result is “inactive”.

In turn, LNEIERSSD registered an amyloid nucleation score of 0.755 ± 0.3.

The substance LHHFSVTYNSITFCLNFPFR had an amyloid nucleation score of 4.11 ± 0.065.

RFAFVRNKTWEQLPMI: the amyloid nucleation score result is “inactive”.

Turning to EFQGVS, the amyloid nucleation score was 0.343 ± 0.64.

Substance VNGYIPRNAAVGQYATRALK came in with an amyloid nucleation score of -0.032 ± 1.1.

In the case of NVFVCPAFQRTWVWMAVMSW, the amyloid nucleation score result is “inactive”.

SVKRHPFRTVKLGVSVLLWV yielded an amyloid nucleation score of 1 ± 0.18.

As for FNSLGFRLTSCIDRVTLVLW, the amyloid nucleation score entry is “inactive”.

Substance LMVKSDTCLLSLLSPTPFRR displayed an amyloid nucleation score of 3.67 ± 0.1.

On to AILFSIFISVGRKWLFSASH, for which the amyloid nucleation score was -1.78 ± 1.1.

In the case of CFMAVQI, the amyloid nucleation score result is “inactive”.

RYFLYFCYVGPNSAMFLSR: the amyloid nucleation score was -0.27 ± 1.1.

In turn, GVIWWPVTLCFWLCAKYIGL registered an amyloid nucleation score of -0.552 ± 1.1.

As to VSCCYRFSASNQIIVTPFSS, the amyloid nucleation score is 8.119 ± 0.026.

In turn, SMVVGMGSCPNVTRGAGLKR showed an amyloid nucleation score of 1.06 ± 0.17.

Take HLSYILGVGMFNVHHDNGFF: the amyloid nucleation score was 2.5 ± 0.2.

Substance GIGFKWGTILLKSLGNIYSQ came in with an amyloid nucleation score of -0.263 ± 0.76.

In turn, HERLKLAGSQSWVGKLVRQG came in with an amyloid nucleation score of 0.917 ± 0.29.

The substance FHVCWERSMLIRV had an amyloid nucleation score of -0.559 ± 0.76.

For NLLLFYPAISVSCVNYTMRV, the amyloid nucleation score was found to be 7.127 ± 0.052.

WCGFHGKATNHFMWIV: the amyloid nucleation score was found to be 1.45 ± 0.27.

Substance DDHLCSFLRFFTNKRKRA yielded an amyloid nucleation score of 4.67 ± 0.09.

As to ITLLGKVLSGVVKPSYPLAA, the amyloid nucleation score result was “inactive”.

VFIGQQDHINP had an amyloid nucleation score of 0.363 ± 0.65.

As to SLSHRADACVTS, the amyloid nucleation score was -0.647 ± 0.64.

With SFDKGIDYRFFTFNSNVKYW, the amyloid nucleation score was 3.49 ± 0.12.

With ERDGSIMCSWTVSEHKSCGY, the amyloid nucleation score result was “inactive”.

As for HYHTSISYR, the amyloid nucleation score came out at 4.77 ± 0.1.

On to FNRDK, for which the amyloid nucleation score is -0.512 ± 0.76.
